Patent publication JP2000166574A

Biological target: 抗Fasモノクローナル抗体HFE7A (from mouse-mouse hybridoma HFE7A, FERM BP-5828)
Assay: peptide (200 μg) preincubated with HFE7A (0.25 μg), then flow cytometry on WR19L12a cells

| inhibition of binding of HFE7A to WR19L12a cells | Binder |
| --- | --- |
| 60% | KCRCKPNFFC [P110] |
| 50% | EINCTRTQNT [P100] |
